B1: Coiled-coil alpha-helical rod protein 1 (Homo sapiens), Q8TD31 (parent)
chain: MFPPSGSTGLIPPSHFQARPLSTLPRMAPTWLSDIPLVQPPGHQDVSERRLDTQRPQVTMWERDVSSDRQEPGRRGRSWGLEGSQALSQQAEVIVRQLQELRRLEEEVRLLRETSLQQKMRLEAQAMELEALARAEKAGRAEAEGLRAALAGAEVVRKNLEEGSQRELEEVQRLHQEQLSSLTQAHEEALSSLTSKAEGLEKSLSSLETRRAGEAKELAEAQREAELLRKQLSKTQEDLEAQVTLVENLRKYVGEQVPSEVHSQTWELERQKLLETMQHLQEDRDSLHATAELLQVRVQSLTHILALQEEELTRKVQPSDSLEPEFTRKCQSLLNRWREKVFALMVQLKAQELEHSDSVKQLKGQVASLQEKVTSQSQEQAILQRSLQDKAAEVEVERMGAKGLQLELSRAQEARRRWQQQTASAEEQLRLVVNAVSSSQIWLETTMAKVEGAAAQLPSLNNRLSYAVRKVHTIRGLIARKLALAQLRQESCPLPPPVTDVSLELQQLREERNRLDAELQLSARLIQQEVGRAREQGEAERQQLSKVAQQLEQELQQTQESLASLGLQLEVARQGQQESTEEAASLRQELTQQQELYGQALQEKVAEVETRLREQLSDTERRLNEARREHAKAVVSLRQIQRRAAQEKERSQELRRLQEEARKEEGQRLARRLQELERDKNLMLATLQQEGLLSRYKQQRLLTVLPSLLDKKKSVVSSPRPPECSASAPVAAAVPTRESIKGSLSVLLDDLQDLSEAISKEEAVCQGDNLDRCSSSNPQMSS
partner: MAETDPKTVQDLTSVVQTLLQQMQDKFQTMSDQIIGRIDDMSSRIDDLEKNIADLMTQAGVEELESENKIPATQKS
B2: Ceramide transfer protein (Homo sapiens), Q9Y5P4 (parent)
chain: MSDNQSWNSSGSEEDPETESGPPVERCGVLSKWTNYIHGWQDRWVVLKNNALSYYKSEDETEYGCRGSICLSKAVITPHDFDECRFDISVNDSVWYLRAQDPDHRQQWIDAIEQHKTESGYGSESSLRRHGSMVSLVSGASGYSATSTSSFKKGHSLREKLAEMETFRDILCRQVDTLQKYFDACADAVSKDELQRDKVVEDDEDDFPTTRSDGDFLHSTNGNKEKLFPHVTPKGINGIDFKGEAITFKATTAGILATLSHCIELMVKREDSWQKRLDKETEKKRRTEEAYKNAMTELKKKSHFGGPDYEEGPNSLINEEEFFDAVEAALDRQDKIEEQSQSEKVRLHWPTSLPSGDAFSSVGTHRFVQKPYSRSSSMSSIDLVSASDDVHRFSSQVEEMVQNHMTYSLQDVGGDANWQLVVEEGEMKVYRREVEENGIVLDPLKATHAVKGVTGHEVCNYFWNVDVRNDWETTIENFHVVETLADNAIIIYQTHKRVWPASQRDVLYLSVIRKIPALTENDPETWIVCNFSVDHDSAPLNNRCVRAKINVAMICQTLVSPPEGNQEISRDNILCKITYVANVNPGGWAPASVLRAVAKREYPKFLKRFTSYVQEKTAGKPILF
B3: Rho guanine nucleotide exchange factor 3 (Homo sapiens), Q9NR81 (parent)
chain: MVAKDYPFYLTVKRANCSLELPPASGPAKDAEEPSNKRVKPLSRVTSLANLIPPVKATPLKRFSQTLQRSISFRSESRPDILAPRPWSRNAAPSSTKRRDSKLWSETFDVCVNQMLTSKEIKRQEAIFELSQGEEDLIEDLKLAKKAYHDPMLKLSIMTEQELNQIFGTLDSLIPLHEELLSQLRDVRKPDGSTEHVGPILVGWLPCLSSYDSYCSNQVAAKALLDHKKQDHRVQDFLQRCLESPFSRKLDLWNFLDIPRSRLVKYPLLLREILRHTPNDNPDQQHLEEAINIIQGIVAEINTKTGESECRYYKERLLYLEEGQKDSLIDSSRVLCCHGELKNNRGVKLHVFLFQEVLVITRAVTHNEQLCYQLYRQPIPVKDLLLEDLQDGEVRLGGSLRGAFSNNERIKNFFRVSFKNGSQSQTHSLQANDTFNKQQWLNCIRQAKETVLCAAGQAGVLDSEGSFLNPTTGSRELQGETKLEQMDQSDSESDCSMDTSEVSLDCERMEQTDSSCGNSRHGESNV
partner: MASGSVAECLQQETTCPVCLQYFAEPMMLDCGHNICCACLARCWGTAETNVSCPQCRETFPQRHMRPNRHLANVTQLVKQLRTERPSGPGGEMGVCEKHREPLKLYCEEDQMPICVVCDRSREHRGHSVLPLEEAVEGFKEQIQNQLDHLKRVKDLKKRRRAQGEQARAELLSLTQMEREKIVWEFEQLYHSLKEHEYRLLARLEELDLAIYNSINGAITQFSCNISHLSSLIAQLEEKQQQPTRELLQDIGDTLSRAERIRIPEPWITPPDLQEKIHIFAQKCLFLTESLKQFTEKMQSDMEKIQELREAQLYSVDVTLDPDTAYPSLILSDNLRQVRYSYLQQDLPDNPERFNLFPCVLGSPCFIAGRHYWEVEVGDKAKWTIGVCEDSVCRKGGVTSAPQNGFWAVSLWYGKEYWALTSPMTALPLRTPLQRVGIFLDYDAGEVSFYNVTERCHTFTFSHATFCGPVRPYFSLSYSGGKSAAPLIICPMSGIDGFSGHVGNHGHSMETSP
B4: E3 ubiquitin-protein ligase LNX (Homo sapiens), Q8TBB1 (parent)
chain: MNQPESANDPEPLCAVCGQAHSLEENHFYSYPEEVDDDLICHICLQALLDPLDTPCGHTYCTLCLTNFLVEKDFCPMDRKPLVLQHCKKSSILVNKLLNKLLVTCPFREHCTQVLQRCDLEHHFQTSCKGASHYGLTKDRKRRSQDGCPDGCASLTATAPSPEVSAAATISLMTDEPGLDNPAYVSSAEDGQPAISPVDSGRSNRTRARPFERSTIRSRSFKKINRALSVLRRTKSGSAVANHADQGRENSENTTAPEVFPRLYHLIPDGEITSIKINRVDPSESLSIRLVGGSETPLVHIIIQHIYRDGVIARDGRLLPGDIILKVNGMDISNVPHNYAVRLLRQPCQVLWLTVMREQKFRSRNNGQAPDAYRPRDDSFHVILNKSSPEEQLGIKLVRKVDEPGVFIFNVLDGGVAYRHGQLEENDRVLAINGHDLRYGSPESAAHLIQASERRVHLVVSRQVRQRSPDIFQEAGWNSNGSWSPGPGERSNTPKPLHPTITCHEKVVNIQKDPGESLGMTVAGGASHREWDLPIYVISVEPGGVISRDGRIKTGDILLNVDGVELTEVSRSEAVALLKRTSSSIVLKALEVKEYEPQEDCSSPAALDSNHNMAPPSDWSPSWVMWLELPRCLYNCKDIVLRRNTAGSLGFCIVGGYEEYNGNKPFFIKSIVEGTPAYNDGRIRCGDILLAVNGRSTSGMIHACLARLLKELKGRITLTIVSWPGTFL
partner: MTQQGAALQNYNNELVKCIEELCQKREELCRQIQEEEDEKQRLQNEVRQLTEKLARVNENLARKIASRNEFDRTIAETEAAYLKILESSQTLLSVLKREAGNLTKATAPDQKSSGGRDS
B5: E3 ubiquitin-protein ligase LNX (Homo sapiens), Q8TBB1 (parent)
chain: B4 chain
partner: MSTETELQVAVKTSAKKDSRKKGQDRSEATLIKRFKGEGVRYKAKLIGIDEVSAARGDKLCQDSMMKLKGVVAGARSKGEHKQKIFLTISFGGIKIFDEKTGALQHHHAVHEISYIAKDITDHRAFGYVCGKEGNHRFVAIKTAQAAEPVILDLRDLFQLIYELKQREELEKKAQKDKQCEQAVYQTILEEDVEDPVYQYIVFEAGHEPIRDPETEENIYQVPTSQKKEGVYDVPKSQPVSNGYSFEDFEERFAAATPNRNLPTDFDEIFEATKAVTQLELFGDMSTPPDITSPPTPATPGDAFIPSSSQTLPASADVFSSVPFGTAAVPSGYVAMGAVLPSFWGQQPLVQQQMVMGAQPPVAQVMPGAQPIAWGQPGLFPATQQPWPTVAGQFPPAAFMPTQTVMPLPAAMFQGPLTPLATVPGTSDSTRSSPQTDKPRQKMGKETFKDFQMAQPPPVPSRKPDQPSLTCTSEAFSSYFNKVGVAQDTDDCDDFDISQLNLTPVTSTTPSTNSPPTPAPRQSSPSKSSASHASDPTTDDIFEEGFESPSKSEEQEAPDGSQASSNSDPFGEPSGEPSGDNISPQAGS
B6: Coiled-coil alpha-helical rod protein 1 (Homo sapiens), Q8TD31 (parent)
chain: B1 chain
partner: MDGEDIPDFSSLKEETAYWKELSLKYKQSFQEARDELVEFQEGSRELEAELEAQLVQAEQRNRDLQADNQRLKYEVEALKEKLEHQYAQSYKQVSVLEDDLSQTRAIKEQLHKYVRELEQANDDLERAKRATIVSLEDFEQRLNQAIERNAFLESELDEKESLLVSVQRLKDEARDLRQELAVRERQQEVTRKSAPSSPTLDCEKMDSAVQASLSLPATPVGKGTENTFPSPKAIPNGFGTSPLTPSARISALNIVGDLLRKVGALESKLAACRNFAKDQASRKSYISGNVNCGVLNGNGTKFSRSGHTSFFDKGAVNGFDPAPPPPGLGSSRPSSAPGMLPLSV
B7: E3 ubiquitin-protein ligase LNX (Homo sapiens), Q8TBB1 (parent)
chain: B4 chain
partner: B1 partner
B8: Vasculin (Homo sapiens), Q86WP2 (parent)
chain: MAQHDFAPAWLNFPTPPSSTKSSLNFEKHSENFAWTENRYDVNRRRHNSSDGFDSAIGRPNGGNFGRKEKNGWRTHGRNGTENINHRGGYHGGSSRSRSSIFHAGKSQGLHENNIPDNETGRKEDKRERKQFEAEDFPSLNPEYEREPNHNKSLAAGVWEYPPNPKSRAPRMLVIKKGNTKDLQLSGFPVVGNLPSQPVKNGTGPSVYKGLVPKPAAPPTKPTQWKSQTKENKVGTSFPHESTFGVGNFNAFKSTAKNFSPSTNSVKECNRSNSSSPVDKLNQQPRLTKLTRMRTDKKSEFLKALKRDRVEEEHEDESRAGSEKDDDSFNLHNSNSTHQERDINRNFDENEIPQENGNASVISQQIIRSSTFPQTDVLSSSLEAEHRLLKEMGWQEDSENDETCAPLTEDEMREFQVISEQLQKNGLRKNGILKNGLICDFKFGPWKNSTFKPTTENDDTETSSSDTSDDDDV
partner: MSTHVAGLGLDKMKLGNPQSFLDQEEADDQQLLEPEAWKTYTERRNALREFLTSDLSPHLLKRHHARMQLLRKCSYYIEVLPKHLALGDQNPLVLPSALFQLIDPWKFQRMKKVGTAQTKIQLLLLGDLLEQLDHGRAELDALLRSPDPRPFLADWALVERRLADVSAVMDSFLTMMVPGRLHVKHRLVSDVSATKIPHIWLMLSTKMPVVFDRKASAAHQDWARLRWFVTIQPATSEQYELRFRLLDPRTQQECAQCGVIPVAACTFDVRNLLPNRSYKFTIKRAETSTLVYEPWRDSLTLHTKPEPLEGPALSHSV

Variants of: B1
Conditions: with hsbp1_human HSBP1, O75506

Q: For W337R, which “effect of a mutation on the interaction” value is on record?
A: disrupting interaction strength

Variants of: B2
Conditions: with ar6p1_human ARL6IP1, Q15041
ar6p1_human ARL6IP1, Q15041, sequence (Q15041 whole entry): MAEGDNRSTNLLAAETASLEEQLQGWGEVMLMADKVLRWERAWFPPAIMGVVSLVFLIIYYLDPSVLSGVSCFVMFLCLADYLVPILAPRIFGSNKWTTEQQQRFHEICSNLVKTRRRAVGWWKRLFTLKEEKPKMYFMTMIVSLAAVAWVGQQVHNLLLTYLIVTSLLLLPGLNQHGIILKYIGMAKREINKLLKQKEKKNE

Q: With T166A as the variant, how does the “effect of a mutation on the interaction” value read?
A: with no effect

Variants of: B2
Conditions: with rtn3_human RTN3, O95197
rtn3_human RTN3, O95197, sequence (O95197 whole entry): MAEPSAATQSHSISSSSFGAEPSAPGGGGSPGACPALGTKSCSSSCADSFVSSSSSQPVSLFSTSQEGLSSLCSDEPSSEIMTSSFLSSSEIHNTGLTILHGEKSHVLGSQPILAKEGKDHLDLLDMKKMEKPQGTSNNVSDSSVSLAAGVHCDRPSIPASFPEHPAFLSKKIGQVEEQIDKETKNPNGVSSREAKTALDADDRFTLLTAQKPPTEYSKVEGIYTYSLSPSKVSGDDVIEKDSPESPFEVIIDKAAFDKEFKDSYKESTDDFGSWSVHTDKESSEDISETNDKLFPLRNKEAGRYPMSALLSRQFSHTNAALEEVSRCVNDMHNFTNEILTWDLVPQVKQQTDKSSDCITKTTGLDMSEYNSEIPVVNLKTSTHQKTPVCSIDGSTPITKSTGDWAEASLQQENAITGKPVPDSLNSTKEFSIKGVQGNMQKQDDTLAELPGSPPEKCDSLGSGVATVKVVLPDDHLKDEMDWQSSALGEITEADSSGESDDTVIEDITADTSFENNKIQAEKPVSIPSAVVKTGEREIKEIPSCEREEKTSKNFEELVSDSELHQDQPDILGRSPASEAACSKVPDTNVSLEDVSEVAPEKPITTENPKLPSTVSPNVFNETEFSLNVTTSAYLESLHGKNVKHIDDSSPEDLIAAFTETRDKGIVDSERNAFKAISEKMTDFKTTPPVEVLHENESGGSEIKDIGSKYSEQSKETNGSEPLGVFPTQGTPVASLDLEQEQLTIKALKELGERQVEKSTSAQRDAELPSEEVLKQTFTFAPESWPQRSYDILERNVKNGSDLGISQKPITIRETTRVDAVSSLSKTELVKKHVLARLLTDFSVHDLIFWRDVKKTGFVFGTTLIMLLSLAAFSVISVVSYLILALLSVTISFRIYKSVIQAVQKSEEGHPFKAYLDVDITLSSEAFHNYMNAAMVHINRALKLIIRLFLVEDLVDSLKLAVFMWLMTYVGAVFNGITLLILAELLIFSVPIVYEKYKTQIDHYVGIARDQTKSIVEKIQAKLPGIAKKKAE

Q: For T166A, which “effect of a mutation on the interaction” value is on record?
A: with no effect

Variants of: B2
Conditions: with rtn4_human RTN4, Q9NQC3
rtn4_human RTN4, Q9NQC3, sequence (Q9NQC3 whole entry): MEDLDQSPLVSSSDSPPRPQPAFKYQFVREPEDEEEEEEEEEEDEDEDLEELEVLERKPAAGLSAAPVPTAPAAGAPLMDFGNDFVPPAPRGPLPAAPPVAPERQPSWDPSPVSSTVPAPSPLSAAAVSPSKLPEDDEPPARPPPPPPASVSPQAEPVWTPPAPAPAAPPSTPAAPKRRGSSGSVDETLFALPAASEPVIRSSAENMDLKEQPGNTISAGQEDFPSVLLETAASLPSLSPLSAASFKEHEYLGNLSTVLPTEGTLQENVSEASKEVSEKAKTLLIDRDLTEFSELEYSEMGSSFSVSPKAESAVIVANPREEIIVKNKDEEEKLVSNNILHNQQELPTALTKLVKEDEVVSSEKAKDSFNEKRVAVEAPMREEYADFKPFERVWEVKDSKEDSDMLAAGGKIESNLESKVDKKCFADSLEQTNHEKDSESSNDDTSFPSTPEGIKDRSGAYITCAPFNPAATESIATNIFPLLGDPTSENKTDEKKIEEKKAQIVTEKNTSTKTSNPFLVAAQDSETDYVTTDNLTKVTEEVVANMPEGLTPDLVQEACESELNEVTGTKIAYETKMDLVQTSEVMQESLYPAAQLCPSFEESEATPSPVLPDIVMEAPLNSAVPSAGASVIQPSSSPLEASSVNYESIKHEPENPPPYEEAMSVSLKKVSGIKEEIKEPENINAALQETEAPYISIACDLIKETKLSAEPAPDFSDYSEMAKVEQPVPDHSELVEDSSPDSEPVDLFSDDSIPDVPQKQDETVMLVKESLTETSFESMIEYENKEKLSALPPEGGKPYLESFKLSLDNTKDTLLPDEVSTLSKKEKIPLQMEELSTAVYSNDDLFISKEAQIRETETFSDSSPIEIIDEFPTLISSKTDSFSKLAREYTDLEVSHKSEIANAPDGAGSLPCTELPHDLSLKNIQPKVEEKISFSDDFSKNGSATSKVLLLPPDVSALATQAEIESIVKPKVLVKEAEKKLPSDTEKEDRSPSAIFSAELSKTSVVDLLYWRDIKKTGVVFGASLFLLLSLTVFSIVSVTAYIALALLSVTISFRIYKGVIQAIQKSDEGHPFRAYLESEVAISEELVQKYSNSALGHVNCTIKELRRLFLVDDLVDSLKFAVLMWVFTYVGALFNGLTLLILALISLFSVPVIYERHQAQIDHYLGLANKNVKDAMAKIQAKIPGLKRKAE

Q: T166A was tested. Which “effect of a mutation on the interaction” value did it give?
A: with no effect

Variants of: B3
Conditions: with tri27_human TRIM27, P14373

Q: With P34S as the variant, how does the “effect of a mutation on the interaction” value read?
A: with no effect

Variants of: B4
Conditions: with ssna1_human SSNA1, O43805

Q: How did the “effect of a mutation on the interaction” value turn out when E295K was run?
A: disrupting interaction strength

Variants of: B5
Conditions: with dab1_human DAB1, O75553

Q: For E295K, which “effect of a mutation on the interaction” value is on record?
A: disrupting interaction strength

Variants of: B6
Conditions: with ndel1_human NDEL1, Q9GZM8

Q: With W337R as the variant, how does the “effect of a mutation on the interaction” value read?
A: disrupting interaction strength

Variants of: B7
Conditions: with hsbp1_human HSBP1, O75506

Q: How did the “effect of a mutation on the interaction” value turn out when E295K was run?
A: disrupting interaction strength

Variants of: B8
Conditions: with fnd11_human FNDC11, Q9BVV2

Q: Which “effect of a mutation on the interaction” value does the source give for R292Q here?
A: with no effect

Variants of: B8
Conditions: with fnd11_human FNDC11, Q9BVV2
Remark: another data set of the same source

Q: With R129C as the variant, how does the “effect of a mutation on the interaction” value read?
A: with no effect

Source: IntAct's records for PubMed 29892012
